These results are taken from the DeepSol protein solubility set.

The data set can be described thus: soluble on expression in E. coli; label from the status in PepcDB or PDB records.
On to “MNVTEITQLARDIRVATLKSLNHLGFGHYGGSMSVVETLAVLYGAVMKIDPADPDWPERDYFVLSKGHAGPALYSTLAIKGYFPREELNTLNQNGTRLPSHPDRLKTRGVDATTGSLGQGISIAGGMALSHKLARRPNRVFCIVGDGELNEGQCWEAFQFIAHHRLNNLTVFIDWNKQQLDGELEEIINPFDLEGKFRAFGFDVVTVKGDDIAGLLAVVQPVPPADAQPRVVILDSIKGQGVPCLEQLTNSHHLRLTDGMKQTLNEAIHQLEVMHD”, for which the “soluble on expression in E. coli” value was “not soluble”.
With “MMLITDTGVPERYIDTDEWGGEVMLRLDDGWCAALDRNTMMCTIYEKRPLICREFEAGAEDCLTERKGIATAYLLEHHHHHH”, the “soluble on expression in E. coli” value is recorded as “not soluble”.
Turning to “MGSDKIHHHHHHMNIQQMKYVAAIANNGSFREAAKKLFITQPSLSNSIRELEEELGISLFLRTNKGAFLTEEGMVFLEQAEKVLVQMELLENRYRETVTSERFSISSQHYDFLGEVIAKVLKKYGDQYKDFRVFETTTLKVIEDVKGFHSELGIIYLNEQNSVSIERYLEQANLAYEVISTFNTHIFLGNHHPLAKQKEIHLEELVPYPQVRFNQEGSNFSYFSEDLVEIPEQESVIHTTDRGTLMNLLVETNAYASGSGVVTGFTKKEIRLVPLAPALENRICLLFPKNREISPIGRYFIKELKALFKKEVDTKTFSTKE”, the “soluble on expression in E. coli” value is “not soluble”.
Regarding “GAMAGSIRSKLSAIDVRQLGTVDYRTAWQLQRELADARVAGGADTLLLLEHPAVYTAGRRTETHERPIDGTPVVDTDRGGKITWHGPGQLVGYPIIGLAEPLDVVNYVRRLEESLIQVCADLGLHAGRVDGRSGVWLPGRPARKVAAIGVRVSRATTLHGFALNCDCDLAAFTAIVPCGISDAAVTSLSAELGRTVTVDEVRATVAAAVCAALDGVLPVGDRVPSHAVPSPL”, the “soluble on expression in E. coli” value was “soluble”.
The result for “MHHHHHHMGLNTAIATRVNGTPPPEVPIADIELGSLDFWALDDDVRDGAFATLRREAPISFWPTIELPGFVAGNGHWALTKYDDVFYASRHPDIFSSYPNITINDQTPELAEYFGSMIVLDDPRHQRLRSIVSRAFTPKVVARIEAAVRDRAHRLVSSMIANNPDRQADLVSELAGPLPLQIICDMMGIPKADHQRIFHWTNVILGFGDPDLATDFDEFMQVSADIGAYATALAEDRRVNHHDDLTSSLVEAEVDGERLSSREIASFFILLVVAGNETTRNAITHGVLALSRYPEQRDRWWSDFDGLAPTAVEEIVRWASPVVYMRRTLTQDIELRGTKMAAGDKVSLWYCSANRDESKFADPWTFDLARNPNPHLGFGGGGAHFCLGANLARREIRVAFDELRRQMPDVVATEEPARLLSQFIHGIKTLPVTWS” reads “soluble”; that for “MTDTLLPAAPQPLEKEGDDYFRKGCNPLAQTGRSKLQNQRAALNQQILKAVRMRTGAENLLKVATNQKVREQVRLELSFVNSDLQMLKEELEGLNISVGVYQGTEEAFTIPLIPLGLKETKEVDFSIVFKDFILEHYSEDSYLYEDDIADLMDLRQACRTPSRDEAGVELLMSYFIQLGFVESRFFPPTRHMGLLFTWYDSFTGVPVSQQTLLLEKASVLFNIGALYTQIGTRCNRQTQAGLESAVDAFQRAAGVLNYLKETFTHTPSYDMSPAMLSVLVKMMLAQAQESVFEKVCLPGIQNEFFVLVKVAQEAAKVAEAYRQLHAAMSQEPVKENIPYSWASVAYVKAYHYGALAHYFAATLLIDHQLKPGADEDHQEKCLSQLYDRMPEGMTPLATLKNAGQRVLLGKGHLHRAIGFHEESLREANLCKKLRDIQVLRDVLSAAHQRTQLKHTQHREDDDLLNLIDAPDVLPKTEREVKITFPDFSKVTVTDFFQKLGPLSVFSASKRWSPPRGIHFTVEEGDLGFTLRGNTPVQVHFLDPHCSASLAGAKEGDYIVSIQGVDCKWLTVSEVMKLLKSFGGEEVEMKVVSLLDSTSSMHNKCATYSVGMQKTYSMICLSMDDDDKADKTKKISKKLSFLSWGTSKNRQKSASTLCLPEVGLARSQNKKKLPTPFSLLNSDSSLY”, “soluble”; that for “SMSYESPFHLNDAVAIVTGAAAGIGRAIAGTFAKAGASVVVTDLKSEGAEAVAAAIRQAGGKAIGLECNVTDEQHREAVIKAALDQFGKITVLVNNAGGGGPKPFDMPMSDFEWAFKLNLFSLFRLSQLAAPHMQKAGGGAILNISSMAGENTNVRMASYGSSKAAVNHLTRNIAFDVGPMGIRVNAIAPGAIKTDALATVLTPEIERAMLKHTPLGRLGEAQDIANAALFLCSPAAAWISGQVLTVSGGGVQELD”, “soluble”.
For “MAHHHHHHMGGFSSKNMEYYNYASMKLLDRSKYINEEEEEDDYHYCKETDIRETIKKAREIKNCNYKESMDLYIKALKTLKKLKENNSRIYRNVLEFEIRPQEIANSMSLKNSLEKNMYMKKEGDKDYTGGPSNDNQTISINNKIASLYNEIADLCCIHDFIEKSLFYYDKACSYNPSKIDYIYKKGVLFQQMNDTERAINTFKIILSSEPNHIPTLFSLGNLYRYIDNHIALSYFEAILKIEPNNTEVLSLIASCYDNLGKLNEAISYQNKAVQIDPDNFNHKKFAQRLIEMKSHN”, the “soluble on expression in E. coli” value was “not soluble”.
“MSLNALYNSLKQRLESGEWLAGQRMPSIRKLASTSEASYHDAVTAYARLVSEGLLSASPGRGYFVNSGASQAVSPREPECMSADPLFRLLQAGPQYTKLGGGWLPPAWRDTELLAKAIRRTARLEQSSLAEYGDISGYLPMRKQLCVHMKRLTRIDIRPSQVLSTLGATQGLDLVARLLIKAGDHVFVDEPGNGNLIRLIQLAGGHVVGVRRTQDGPDIAEMESYLAKHTVKAFFCNSTFHNPTGSNISPHNAFKVLRLAVEHEFFVVEDDVYGDFSPTVRQTFAELDNLDRVIYIGSFSKCLSASLRVGYIACSQELIEPLTRLKLLTCVAVPAFCERFVNTILADGTYARHMQDVQQRLISQQVQTQRSLLARGWKFDIAPQGGMFIWAYHPDITDLQPFMTKLEQHRILLMPGSAFSVTRDYQRFARINCTHFSEAVEAHFSV”: the “soluble on expression in E. coli” value is on record as “not soluble”.
In the case of “MTVSNNGMAMPSVPPKIDCSEAIQDSPKFRATVAQHAMYFNRLENRLNEMLRHITAMIDFSKNYTNTFYKLTVSVNQLCDESFSGNPLASTTFQGLSEAYAHTVNLFRTYFDHSNVVTFTKLSNFIKIELTKVAESRAHFENMSQSMDDALVKNASISRQKPADATEGRNALTAVGTCFAHTTLDYVANINIAHAHKDHMILDALWTLVRESSAFFSKGHATFDEWTAADNGAIADTIQTFAAKSKLIERKMQDVHSLVPKEMFQHPSGMPIEPDVMMEGYLYKRSSNAFKTWNRRWFQIKDKQLLYSHRSTDLEPATIMEENLRICLVRPAPSNIDRIGCFELVTPTRIHLLQADSESLCQDWMRALQRTILALHEGDSVDVASTSPRNKTTSMSSGVTLTSANAISPLSNAMDVTKGRSVSDPASTYTSANTSSISTAAGFSSSTTAFEQVRRVPGNEVCADCGSPAPKWVSINLGVVLCIECSGAHRSLGVQTSKVRSLCMDSIDNELRDVLLALGNRQVNEIFLAHLPPADSIVPPQINEKSARPAREAWIKAKYVERRFAVAEDTRARSSATNRQEHLKHKTSIGGNSSSNGVNRSSSYADVQDAESGGLLDADPWSADLSVPVPTASKRLSACGSDTNLDAIGSSSIDTKTVEWDSVKEACECGDLLALMTAYAQGFDLNALHNGTTALHIATRNGQTAAVEFLLLNGAKINMLDEKLNTPLHLAAKEGHTLPVCQLLKRGADSNLANVDSKTPLDIAMECTHADIVTLFRVTIMRNDFNADFNNPMDETVEAVISDIARRAATEKEQKKTESLKSTSDI”, the “soluble on expression in E. coli” value is given as “not soluble”.
On to “MRSVRRREALREWIMAKLYFNYSTMNAGKSTMLLQASYNYQERGMRTLIFTAAFDDRAGVGRVASRIGLSSEARTFDENTDLFAEVAALHAQAPVACVFVDEANFLSEHHVWQLANIADRLNIPVMTYGLRTDFQGKLFPASKELLAIADELREIRTICHCGRKATMVARFDSEGKVVTEGAQIEVGGNGKYVSFCRRHWVETFNCSLEHHHHHH”, for which the “soluble on expression in E. coli” value is “not soluble”.
The value for “MQVFCFTPKGEVVKLPRGATPIDFAFAIHTRIGMACVGAKVDHMRVPLWTRLKNGQSVEVITAEGQSPQATWLEHHHHHH” was “not soluble”; that for “MDRAPVSSRRPCASQDPQRRPLCREEEGATPTALAVSSTTLGGRGGAHMCSCTVSSPNREGTCSSNILSYTLTHSTSPVVPWGCGRQPNHLQAPPRLAPLTESPIVARGFGPPPIAPAPLALAESSEHALCAPQLTFTAGAPGGTCLCSARSALPLLPFSSVLTASQRATPVPVWRRSKPLTRLPATTLGPTLSGNSGSPDDVVVALSDASMPKGETGEWMCAEASLQPSAAEPTPNAGSAVRHVDYQAAATQTGCVGSSLAAKVATESSQMALPDALAHLVEPPQGASAPSKTATDQLVNAPVGDIELRKRREEDSSDARASLSSALSSLGHPSNHNVHSSVDGVLWAHEAPEQPAYAHQHQLPAIFSQLVQDLLAAEPRADVEGDDDLLERWIQSWFENRCMTQPLQQSRSNSMKHLRTLQEAAVGAIANGAYVQGARSSNYVEPREKPAVDKNVGDATHAGPAARPAAGPSTTISASAAVTRTTTKSASAQLFPSSTAASPPHQYVPLTVEYSCSTLQSRMTSGASQRATSPPKPPQAQPLPVSPGTLHTAGASSTPGPPPHSAADGGGGVLAAVVGLSSPPQQPQQQPQPAKPLSGGPHLPAPASTRSMSSKQTVVAAAALAGGGEGDKGASGARPKLATTACAVFAHSSSSSAPKEAAHPHE” was “soluble”.
The result for “MHHHHHHSSGVDLGTENLYFQSMEETEKWMEEAMHMAKEALENTEVPVGCLMVYNNEVVGKGRNEVNQTKNATRHAEMVAIDQVLDWCRQSGKSPSEVFEHTVLYVTVEPCIMCAAALRLMKIPLVVYGCQNERFGGCGSVLNIASADLPNTGRPFQCIPGYRAEEAVEMLKTFYKQENPNAPKSKVRK” reads “soluble”.
As for “MSLYAAYAGNLDPRLMTRRAPHSPLRATGWLNDWRLTFGGEHMGWEGALATIVEAPRSQVFVALYDIAPMDEDSMDRWEGVGLDIYRRMRVRVHTLEGEEAAWVYVLNGYEGGLPSARYLGELADAAESAGAPHDYVMELRKRPCLEHHHHHH”, the “soluble on expression in E. coli” value is “soluble”.
The result for “MSGRRKGCSAATASSSSSSPPSRLPPLPGHARRPRRKRCLVPEVFCTRDLADLCVRRDYEGLRRYLRRFEGSCVSLGWPSQCIYVVGGEHSPHSLTEIDLEHCQNDFFGEFRALHLIGTVSHATCRYQVFVDAYGAVFAYDAQEDCLYELASDLAGFFAKGMIRCDPVHESICARLQPNVPLVHPDHRAELCRRSRASARGRYLRSLLAFRELLACEDTAARCAYVEAHREAQLTLIWPEKHSLVLRTARDLGLSASMLRRFQRSLYTREPVMPLGEIEGAEDKTFFHRVRILCGDTGTVYAALVGQDKLVRLARDLRGFVRVGLALLIDDFRYESIGPVDRSSLYEANPELRLPFKKRRLEHHHHHH” reads “not soluble”.
The result for “MFVAREHELQVLEKLFTSDSFEMVVLYGRRRVGKTALIDEFVKDKRVLYFTAIQQSAKMNLEDFSRAALSFFGMPDSTPSFGGWSDALSFVAERAAQTDERMVFVFDEFPYAAAAEPALPSMLQIAIDHGFLATKVTMILSGSNEGFMENDVLGRKSPLYGRRTAQIRLLPFDYADAAKFLTNTSPQELVQYYATFGGTPYYLARIQEADGFESNVLRLMFDNLGVLREEPMMLLRQELREPASYYSILQSIAGGNSSPKLIAEHAGVGSDSIGAYLKTLVDLRLIERKVPFGEDPSKSRKGMYVVSDPFFAYWFRFVGRNMSILDGNISEEVTSRLAFGPAFDTYVGQQFETICLQWLIRNNAMGNLPFVATQFGKWWGNDPIAHEQTDIDVIAADSLDKTILFGECKWRNSFNETEAIEKLHQRAGLVRGYQAGNAWLMLFTKNPVSESTRTRYMDDERMVFVSAEELYTALEHHHHHH” reads “not soluble”.
The value for “MVKITNNVHQFGYEPAEFLSKKLTFTDIVHPEDLDRIVKEMVAFLKNDIVYFEQDYRIFTKGGDIRWVYEKTILKTDDTGLPTLAKGYLLDITER” was “not soluble”.
